{
  "source": "paper doi:10.1101/776245",
  "biological_target": "SERP2475 (Nhi), full-length (Staphylococcus epidermidis RP62a)",
  "test": "SEC",
  "data": [
    {"substance": "SERP2475 (Nhi), full-length (enzyme)", "values": [
      {"measurement": "stoichiometry N", "result": 2}
    ]}
  ]
}
